Test results taken from patent US20240218057A1 (ROCKEFELLER UNIVERSITY, published 2024).
Residue numbers refer to the chain shown, from its start.

B1: C891 (antibody, V domains shown)
VH: EVQLVESGGGLVKPGGSLRLSCAVSGFTFSNVWMSWVRQAPGKGLEWVGRIKSKTDGGTTDYAAPVKGRFTISRDDSKNTLYLQMNSLKTEDTAVYYCTSQLWLRGPGDYWGQGTLVTVSS
VL: NFMLTQPHSVSESPGKTVTISCTGSSGSIASNYVQWYQQRPGSAPTTVIYEDNQRPSGVPDRFSGSIDSSSNSASLTISGLKTEDEADYYCQSYDSSLNWVFGGGTKLTVL
notes: IgG; V domains only
B2: C960 (antibody, V domains shown)
VH: QVQLVESGGGVVQPGRSLTLSCTASGFTFNRFAMFWVRQAPGKGLEWVAVISFDGSYEHYAESVKGRFAIFRDNPKNTLYLQMNSLRAEDTAVYYCAKSPINYCANGVCYPDSWGQGTLVTVSS
VL: B1 VL with S31N, Y50F, N53T, T77N, T83P, Y94F, S96V, S97N, L98S, N99R
notes: IgG; V domains only
B3: C892 (antibody, V domains shown)
VH: EVQLVESGGGLVKPGGSLKVSCTASGFTFTDAWMSWVRQAPGKGLEWVGRIKSRAYGGTTDYGAPVQGRFTISRDDSINTLYLQMNSLTAEDTAVYYCTSQLWLRGPGDYWGQGTLVTVSS
VL: B1 VL with Q35H, S43G, S69I, A87G, S97G, L98V
notes: IgG; V domains only
B4: C899 (antibody, V domains shown)
VH: EVQLVESGGGLVKPGGSLRLSCAASGFTFSNAWMSWVRQAPGKGLEWVGRIKSKTDAETTDYAAPVRGRFTISRDNSKNTLYLEMNSLKTEDTAVYYCTTDADYSDSSGYYVTYYFEYWGQGSLVTVSS
VL: QSALTQPRSVSGSPGQSVTISCTGSNSDVGGYNYVSWYQQHPGKAPKLVIYDVSLRPSGVPDRFSGSKSGITASLTISGLQPEDEAHYYCCSFAGTYTPWVFGGGTRLTVL
notes: IgG; V domains only
B5: C896 (antibody, V domains shown)
VH: QVQLVESGGGVVQPGRSLKLSCAASGFTFKTYGMHWVRQAPGKGLEWVAVISYDGTNDYYADSVKGRFTVSRDNSKNTLYLQMNSPRTEDTAVYYCAKAGGPYYYDTSGSFWYFDYWGQGTLVTVSS
VL: DIQMTQSPSSLSASVGDRVTITCRASQTISSYLNWYQQKSGKAPELLVYDASNLESGVPSRFSGSGSGTDFTLTISSLQPEDFATYYCQQSYSFGPGTKVDIK
notes: IgG; V domains only
B6: C959 (antibody, V domains shown)
VH: QVQLQESGPGLVKPSETLSLNCNVSGGSISNYYWSWIRQPPGKGLEWIGFISYSGSTDYNPSLKSRVIISIDTSKKHFSLNLSSVTAADTAVYFCARHYDILTALSWFDPWGQGTLVTVSS
VL: QSVLTQPPSVSAAPGQTVTISCSGSSSNIRNNFVSWYQQFPGTAPKLLIYDNNKRPSGIPDRFSGSKSGTSATLGITGLQTGDEADYYCGTWDSSPSACWVFGAGTKLTV
notes: IgG; V domains only
B7: C890 (antibody, V domains shown)
VH: QVQLVQSGAEVKKPGSSVKASCKASGGTFSTYTISWVRQAPGHGLEWMGRIIPIFGTTKYAQKFQGRVTITADESTTTAYLELSSLRSEDTAVYYCTINTQWDLVPRWGQGTLVTVSS
VL: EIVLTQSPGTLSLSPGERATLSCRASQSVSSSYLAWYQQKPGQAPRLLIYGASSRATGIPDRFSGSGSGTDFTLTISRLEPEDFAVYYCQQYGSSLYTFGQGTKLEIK
notes: IgG; V domains only
B8: C902 (antibody, V domains shown)
VH: EVQLVQSGAEVKKPGESLRISCKGSGYSFHTYWIHWVRQMPGKGLEWMGKIDPSDSYTNYSPSFQGHVTFSADRSISTAYLQWSSLKASDTATYYCARLSWSPPTRTTDEKNWFDPWGQGTLVTVSS
VL: DIQLTQSPSFLAASAGDRVTITCRASQGISSYLAWYQQKPGKAPKVLIYAASTLQSGVPSRFSGSGSGTEFTLTISSLQPEDCATYYCQQFNSDPLTFGGGTKVEIK
notes: IgG; V domains only
B9: C901 (antibody, V domains shown)
VH: QVQLVESGGGVVQPGRSLRIACGASGFTFSTYDMHWVRQAPVKGLEWVAVISRDGSGKFYADSVKGRFTISRDNSKKTLYLQMDSLRPEDTAMYYCARDFESRTWDPPKYYYALDVWGQGTTVTVSS
VL: DIQMTQSPSSLSASVGDRVTITCRASQSISTYLNWYQQKPGKAPSLLIYAASSLYSGVPSRFSGSGSGTDFSLTISSLQPEDFATYYCQQTYTTPTWTFGQGTKVEIK
notes: IgG; V domains only
B10: C895 (antibody, V domains shown)
VH: QVQLVQSGAEVKKPGSSVKVSCKASGGTFTSYAFSWVRQAPGQGLEWMGGIIPIFGTTNYAQKFQGRVTITADESTSTAYMELSSLRSEDTAVYYCARPEGCGSRTSCTPGAYYYGMDVWGQGTTVTVSS
VL: EIVLTQSPATLSLSPGERATLSCRASQSVGSYLAWYQQKPGQAPRLLIYDASNRATGIPARFSGSGSGTDFTLTISSLEPEDFAFYFCQQRNSWPPEYSFGQGTKLEIK
notes: IgG; V domains only
B11: C956 (antibody, V domains shown)
VH: EVQLVESGGGLVQPGRSLRLSCTGSEFTFGDFSMSWFRQAPGKGLEWVGFIRRKADGGTTEYAASVRGRFTISRDDSKSIAYLVMNSLKSEDTAVYYCTRAWIPTPHDYWGQGVLVTVSS
VL: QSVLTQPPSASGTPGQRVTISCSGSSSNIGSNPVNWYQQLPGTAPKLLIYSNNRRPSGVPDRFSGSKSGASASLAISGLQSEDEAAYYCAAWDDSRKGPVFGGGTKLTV
notes: IgG; V domains only
B12: C957 (antibody, V domains shown)
VH: B11 VH with G24A, E26G, G30A, S35T, K54E, S79G, V84L, V95M, T99S, V114T
VL: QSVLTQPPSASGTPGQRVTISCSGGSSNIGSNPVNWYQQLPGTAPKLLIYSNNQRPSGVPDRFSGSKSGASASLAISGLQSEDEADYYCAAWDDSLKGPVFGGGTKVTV
notes: IgG; V domains only
B13: C952 (antibody, V domains shown)
VH: EVQLVQSGAEVKKPGESLTISCKDSGNSFTIYWIGWVRQMPGKGLEWMGMIYPGDSGTRYSPSFEGQVTISADESINTAYLQWRSLKASDTAMYYCVRGIAVDWYFDLWGRGTLVTVSS
VL: QSVLTQPPSVSGAPGQRVTISCTGSSSNIGAGFDVHWYQQLPGTAPKLLIYGNNNRPSGVPDRFSGSKSATSASLAITGLQAEDEADYYCQSSDSSLSGLYVFGTGTNVIV
notes: IgG; V domains only
B14: C953 (antibody, V domains shown)
VH: QVQLVQSGAEVKKPGSSVKVSCKASGGTFSSYAISWVRQAPGQGLEWMGRIIPILGIANYAQKFQGRVTITADKSTSTAYMELSSLRSEDTAVYYCARDSEYSSSWYSRGYYGMDVWGQGTTVTVSS
VL: not shown
notes: IgG; V domains only
B15: C986 (antibody, V domains shown)
VH: EVQLVQSGAEVKKPGETLKISCKGSGDSFSNYWIGWVRQSPGKGLEWMAIVYPGDSDARYSPSFQGQVTISADKSVTTAYLKWSSLKASDTAIYYCVRGLPVDWYFDLWGRGTLVTVSS
VL: QSVLTQPPSVSGAPEQRVTISCTGSSSNIGAGHDVHWYQQLPGTAPKLLIYNNNNRPSGVPDRFSGSKSGASASLAISGLQAEDEAEYYCQSYDKSLSVLYVLGTGTKVTV
notes: IgG; V domains only
B16: C878 (antibody, V domains shown)
VH: EVQLVESGGGLVQPGGSLRLSCSVSGFTFSNFAMHWVRQAPGKGLEFVSGVSSDGDITDYADSVKGRFTISRDNSKNTLYLQMSSLRPEDTAVYYCVKDKEHSTMVTIFDFWGQGTLVTVSS
VL: DIQMTQSPSSLSASVGDRVTITCRASQSISSFLNWYQQKPGKAPKLLIYAASSLQSGVPSRFSGRGSGADFTLTITSLQPEDFATYFCQQSYSSHLTFGPGTKVDIK
notes: IgG; V domains only
B17: C897 (antibody, V domains shown)
VH: QVQLVESGGGVVQPGRSLRLSCAASGFIFSHYGMHWVRQAPGKGLEWVAVILYDGSDQYYADSVKGRFTISRDNSKNTLFLEMNSLRLEDTAVYYCAKGGGQYCSHGNCYLNYFDYWGQGALVTVSS
VL: DIQMTQSPSSLSASVGDRVTITCQASQDIRDNLNWYQQKPGKAPQLLIYDASNLQPGVPSRFSGSGSGTHFTFTISRLQPEDIATYFCQQYANLPTTFGPGTKVDIK
notes: IgG; V domains only
B18: C900 (antibody, V domains shown)
VH: QVQLQESGPGLVKPSGTLSLTCTVSGGSINSRNWWSWVRQPPGKGLEWIGEIFHSGSTNYNPSLESRVAISIDKSHNHFSLKLTSVTAADTAVYYCARANGILDFWGQGTLVTVSS
VL: DIQMTQSPSSLSASVGDRVTITCRASQGISNSLAWYQLKPGKAPKLLLYAASTLESGVPSRFSGSGSGTNFTLTISSLQPEDFASYCCQHYYSSPRTFGQGTKVEI
notes: IgG; V domains only
B19: C889 (antibody, V domains shown)
VH: EVQLVESGGGLVQPGGSLRLSCAVSGFTVSSNYMTWVRQAPGKGLEWVSLIYSGTSAFYADSVKGRFTISRDNSKNTLYLQMSSLRVNDTAIYYCARDLRKDDGYSYGAFDYWGQGTLVTVSS
VL: QSALTQPASVSGSPGQSITISCSGTSSDVGAHNYVSWYQQYPGKAPKLMIFDVTDRPSGVSNRFSGSKSGNTASLTISGLQAEDEADYYCTSYTTNRSWVFGGGTKVTVL
notes: IgG; V domains only
B20: C893 (antibody, V domains shown)
VH: EVQLVQSGAEVKKPGESLKISCKGSGYYFTRQWIGWVRQMPGKGLEWMGIIYPGDSDTRYSPSFQGQVTISADKSISTAYLQWSSLKASDTAMYYCARGGWDPAEYSSSGGGGLDAFDIWGQGTMVTVSS
VL: EIVLTQSPATLSLSPGERATLSCRASQSVSSYLAWYQQRPGRAPRLLIYDASNRATGIPGRFSGSGSGTDFSLTISSLEPEDFAVYYCQQRSSWPLTFGQGTRLEIK
notes: IgG; V domains only
B21: C898 (antibody, V domains shown)
VH: QVQLVQSGAEVKKPGSSVKVSCKASGGPFSSYAFTWVRQAPGQGLEWMGGIIATFGTVNYAQKFQGRVTITADEFTSTVNMELSSLRSDDTAVYYCARRDCSTTSCYDEVLYRLVDWGQGTLVTVSS
VL: EIVLTQSPGTLSLSPGERATLSCRASQSVNSDYLAWYKQKPGQAPRLLIYGTSSRATGIPDRFSGSGSGTDFTLTISRLEPDDFAVYYCQQYGNSPRTFGQGTKVEIK
notes: IgG; V domains only
B22: C955 (antibody, V domains shown)
VH: QVQLQQWGAGLLKPSETLSLTCAVYGGTFSGYSWTWIRQPPGKGLDWIGEINHSGSTNYNPSLKSRVTISVDTSKNQFSLKLSSVTAADTAVYYCARAGFGFVITSRSGTDPLFDYWGQGTLVTVSS
VL: QSVLTQPPSVSGAPGQRVTISCTGSSSNIGAGYDVHWYQQLPGTAPKVLIYGNNNRPSGVPDRFSGSKSGTSASLAITGLQAEDEADYYCQSYDTSLSGSRVFGGGTKLTVL
notes: IgG; V domains only
B23: C954 (antibody, V domains shown)
VH: QVQLVQSGAEVKKPGSSVKVSCKASGDTFTNYAFSWMRQAPGQGLEWMGRIIPILGIVKYSQKFQDRVRISADKSTSTAYMDLSSLRSEDTAMYYCARDSEFSTSWFSRGYHGMDVWGQGTTVTVSS
VL: DIVMTQSPLSLPVTPGEPASISCRSSQSLLHGDGYNYLDWYLQKPGQSPHLLIYLGSNRTSGVSDRFSGSGSGTDFTLKISRVEAEDVGVYYCMQALQTPPTFGGGTKVEIK
notes: IgG; V domains only
B24: C876 (antibody, V domains shown)
VH: EVQLVESGGGLIQPGGSLRLSCAASEFVISRNYMSWVRQAPKKGLEWVSVLYSGGSTFYADSVKGRFTISRDDSRNMLYLQMNSLRAEDTAVYYCVRDFGEFYFDYWGQGVLVTVSS
VL: EIVMTQSPTTLSVSPGERATLSCRASQSLSSNLAWYQQKPGQAPRLLIFGVSTRATGIPARFSGSGSGTEFTLTISSLQSEDFAVYYCQQYYSGPRTFGQGTKVEIK
notes: IgG; V domains only

Molecular target: T1, SARS-COV-2 RBD (SARS-COV-2, UniProt P0DTC2 319-539)
T1 construct: also called WT RBD
Assay: ELISA, RBD coated

Binder | EC50 [ng/mL]
B1 | 2.14
B2 | 1.62
B3 | 1.83
B4 | 2.23
B5 | 4.3
B6 | 4.58
B7 | 9.68
B8 | 3.39
B9 | 2.01
B10 | 2.21
B11 | 1.58
B12 | 1.93
B13 | 2.4
B14 | 4.09
B15 | 3.36
B16 | 2.88
B17 | 1.88
B18 | 2.54
B19 | 0.8
B20 | 3.73
B21 | 7.6
B22 | 2.44
B23 | 1.48
B24 | 3.53
